Results on one molecule are retold here after article PMC3306407, “A Single-Stranded DNA Aptamer That Selectively Binds to Staphylococcus aureus Enterotoxin B”.

For data set [1], the target named is staphylococcal enterotoxin B (SEB) (Staphylococcus aureus, UniProt P01552 28-266).
For data set [2], the target named is staphylococcal enterotoxin C2 (SEC2) (Staphylococcus aureus, UniProt P34071 28-266).
The target of data set [3] is staphylococcal enterotoxin C1 (SEC1) (Staphylococcus aureus, UniProt P01553 28-266).
Data set [4] deals with staphylococcal enterotoxin C3 (SEC3) (Staphylococcus aureus, UniProt P0A0L5 28-266).

B1: APTSEB1 (ssDNA)
DNA: GGTATTGAGGGTCGCATCCACTGGTCGTTGTTGTCTGTTGTCTGTTATGTTGTTTCGTGATGGCTCTAACTCTCCTCT
Turning to B1, the binding result is “binds” in data set [1], “no binding” in data set [2], “no binding” in data set [3] and “no binding” in data set [4].
